Consider five molecules from patent publication US7029857B1, “Processes for obtaining compounds employing SNORF72 receptors” (H. Lundbeck A/S, priority 1999, dated 2006).

What is called Ki is a measure of affinity in units of concentration, obtained from inhibition or displacement. Low values mean tighter binding, high ones weaker binding. Usually pKi stands for the Ki on a negative log10 scale, so that one unit is a factor of ten.

No end group written: not given here. A value given as a limit tells only on which side of the number the result lay.

Test [1] concerns the target T1, human SNORF72 receptor (human, UniProt Q9GZQ4 1-415). Kind of test: displacement of [125I]rat NMU-23, membranes of SNORF72-transfected COS-7 cells. The procedure: (§1) Radioligand binding assays were performed by diluting membranes prepared from cells expressing the receptor in 50 mM Tris buffer (pH=7.4 at 0° C.) containing 0.1% bovine serum albumin (Sigma), aprotinin (0.005 mg/ml, Boehringer Mannheim) and bestatin (0.1 mM, Sigma) as protease inhibitors. The final protein concentration in the assay was 12–40 µg/ml. […] The bound ligand was separated from free by filtration through GF/B filters presoaked in 0.5% polyethyleneimine (PEI), using a Tomtec (Wallac) vacuum filtration device. After addition of Ready Safe (Beckman) scintillation fluid, bound radioactivity was quantitated using a Trilux (Wallac) scintillation counter (approximately 40% counting efficiency of bound counts). Data was fit to non-linear curves using GraphPad Prism.
(In general: In a radioligand displacement assay an active substance lowers the binding of a labelled ligand.)

The target in test [2] is T2, human SNORF62 receptor (human, UniProt Q9HB89 1-426).
T2 sequence: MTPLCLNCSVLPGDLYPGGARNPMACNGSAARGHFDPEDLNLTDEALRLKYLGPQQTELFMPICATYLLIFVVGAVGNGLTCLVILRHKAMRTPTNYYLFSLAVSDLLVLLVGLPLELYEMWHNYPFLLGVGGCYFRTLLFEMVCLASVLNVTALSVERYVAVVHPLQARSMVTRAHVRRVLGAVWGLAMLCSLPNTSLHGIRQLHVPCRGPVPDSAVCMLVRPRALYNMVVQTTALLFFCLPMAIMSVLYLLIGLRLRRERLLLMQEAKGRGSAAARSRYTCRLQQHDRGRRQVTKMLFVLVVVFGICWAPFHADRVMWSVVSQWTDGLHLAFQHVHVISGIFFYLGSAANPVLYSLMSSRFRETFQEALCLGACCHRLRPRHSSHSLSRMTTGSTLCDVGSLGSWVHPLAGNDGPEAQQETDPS
Kind of test: displacement of [125I]rat NMU-23, membranes of SNORF62-transfected COS-7 cells. As to the method:
as §1

Test [3] has as its target T2, human SNORF62 receptor. Kind of test: displacement of [125I]rat NMU-23 (0.05-0.1 nM), membranes of SNORF62-transfected COS-7 cells, n=2. The procedure: as §1
The target of test [4] is T1, human SNORF72 receptor. Kind of test: displacement of [125I]rat NMU-23 (0.05-0.1 nM), membranes of SNORF72-transfected COS-7 cells, n=2. As to the method: as §1
Test [5] deals with T2, human SNORF62 receptor. Kind of test: cell-based or functional assay.
Test [6] has as its target T2, human SNORF62 receptor. Kind of test: cell-based or functional assay. The source holds these as a separate data set.
For test [7], the target named is T2, human SNORF62 receptor. Kind of test: cell-based or functional assay. This is another data set of the same source.
Test [8] deals with T1, human SNORF72 receptor. The test can be described thus: cell-based or functional assay.

T1 sequence (Q9GZQ4 other isoform, or with tags, fused parts or gaps): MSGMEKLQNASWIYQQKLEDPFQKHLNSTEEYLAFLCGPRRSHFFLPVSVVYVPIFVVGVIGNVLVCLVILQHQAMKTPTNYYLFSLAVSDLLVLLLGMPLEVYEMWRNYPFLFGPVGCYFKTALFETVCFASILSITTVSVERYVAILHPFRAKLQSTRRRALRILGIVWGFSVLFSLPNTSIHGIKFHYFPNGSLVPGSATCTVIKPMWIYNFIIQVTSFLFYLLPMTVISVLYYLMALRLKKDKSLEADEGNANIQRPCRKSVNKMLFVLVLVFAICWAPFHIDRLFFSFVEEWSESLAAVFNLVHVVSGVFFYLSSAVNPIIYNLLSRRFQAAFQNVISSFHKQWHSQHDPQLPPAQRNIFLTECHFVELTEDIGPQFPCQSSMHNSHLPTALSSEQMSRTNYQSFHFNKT

In the case of frog PP (peptide), the inhibition constant Ki with human SNORF72 receptor [1] and in the test with human SNORF62 receptor [2] was above 10000 nM throughout. For the same molecule, the pKi with human SNORF62 receptor [3] and with human SNORF72 receptor [4] was below 5 each time.

B1: human NMU-25 (peptide)
peptide: FRVDEEFQSPFASQSRGYFLFRPRN-NH2
notes: also called human neuromedin U-25
On to B1, for which the “AVG EC50 (nM), stimulation of Ca++ release in SNORF62-transfected COS-7 cells (FLIPR)” value with human SNORF62 receptor [5] was found to be 4 nM. In addition, in the test with human SNORF62 receptor [6], the “EC50, release of IP second messengers in SNORF62-transfected COS-7 cells” value stood at 0.25 nM and the “release of IP second messengers, fold above basal, in SNORF62-transfected COS-7 cells” value was around 2 fold. The same molecule gave a Ki with human SNORF62 receptor [2] of 2 nM. Besides, the pKi in the test with human SNORF62 receptor [3] stood at 8.7. Moreover, the pKi with human SNORF72 receptor [4] was 8.5. The “Avg EC50 (nM), stimulation of Ca2+ release in SNORF62-transfected COS-7 cells” value with human SNORF62 receptor [7] amounted to 4 nM. In addition, in the test with human SNORF72 receptor [8], the “Avg EC50 (nM), stimulation of Ca2+ release in SNORF72-transfected COS-7 cells” value stood at 2.4 nM.

B2: porcine NMU-25 (peptide)
peptide: FKVDEEFQGPIVSQNRRYFLFRPRN-NH2
notes: also called porcine neuromedin U-25
Molecule B2 showed a Ki in the test with human SNORF72 receptor [1] of 1.8 nM. For the same molecule, in the test with human SNORF62 receptor [5], the “AVG EC50 (nM), stimulation of Ca++ release in SNORF62-transfected COS-7 cells (FLIPR)” value is 5.2 nM. Besides, the pKi with human SNORF62 receptor [3] stood at 9; with human SNORF72 receptor [4], 8.7. The “Avg EC50 (nM), stimulation of Ca2+ release in SNORF62-transfected COS-7 cells” value in the test with human SNORF62 receptor [7] stood at 5.2 nM. In the test with human SNORF72 receptor [8], the “Avg EC50 (nM), stimulation of Ca2+ release in SNORF72-transfected COS-7 cells” value is 3 nM.

B3: rat PP (peptide, UniProt P06303 30-65, looked up)
peptide: APLEPMYPGDYATHEQRAQYETQLRRYINTLTRPRY
notes: also called rat pancreatic polypeptide
Consider B3, for which the Ki in the test with human SNORF72 receptor [1] and with human SNORF62 receptor [2] was above 10000 nM throughout. In addition, the pKi with human SNORF62 receptor [3] and in the test with human SNORF72 receptor [4] was below 5 each time.

B4: vasoactive intestinal peptide (peptide, UniProt P01282 125-152, looked up, species assumed)
Vasoactive intestinal peptide: HSDAVFTDNYTRLRKQMAVKKYLNSILN-NH2
modifications: ends and bridges not checked
On to B4, for which the Ki with human SNORF72 receptor [1] and in the test with human SNORF62 receptor [2] was above 10000 nM each time. The pKi in the test with human SNORF62 receptor [3] and with human SNORF72 receptor [4] was below 5 throughout.
